Measured values as given in patent publication US20190177370A1 (TOKYO UNIVERSITY OF PHARMACY AND LIFE SCIENCES, published 2019).
Square brackets hold non-standard residues; d marks the D form. Primed or numbered codes have the meaning given here. * marks the point of attachment. m‑dPEG(4)″ = m-dPEG(4) acid, coupled to Acp (R^111 group of Formula (4)), COCCOCCOCCOCCC(=O)*; m‑dPEG(4) = m-dPEG(4) acid, coupled to Acp, with Acp forms R^111 of Formula (4); Propanoyl(3,3-Ph2) = O=C(CC(c1ccccc1)c1ccccc1)*; 2Nal = N[C@@H](Cc1ccc2ccccc2c1)C(=O)O; Chg = N[C@H](C(=O)O)C1CCCCC1; R^118 = not defined here; Ahx = NCCCCCC(=O)O

T1: myostatin (UniProt O14793 267-375, limits assumed)
T1 sequence (looked up): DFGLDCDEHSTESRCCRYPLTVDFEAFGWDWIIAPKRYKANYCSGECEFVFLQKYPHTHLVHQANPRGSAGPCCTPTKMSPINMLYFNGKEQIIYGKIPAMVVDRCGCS


Molecular target: T1, myostatin
Assay: cell-based or functional assay

Row | myostatin inhibitory activity at 0.3 µM (luciferase reporter assay) [% inhibition] | myostatin inhibitory activity at 1 µM (luciferase reporter assay) [% inhibition] | IC50 of the myostatin inhibitory activity (luciferase reporter assay, 0.016 to 2 µM) [nM] | Binder
1 | ≥ 40 |  |  | H-WYIRWIR[Chg]QIWSR[Chg]RL-NH2 (SMILES CC[C@H](C)[C@H](NC(=O)[C@H](CCC(N)=O)NC(=O)[C@@H](NC(=O)[C@H](CCCNC(=N)N)NC(=O)[C@@H](NC(=O)[C@H](Cc1c[nH]c2ccccc12)NC(=O)[C@H](CCCNC(=N)N)NC(=O)[C@@H](NC(=O)[C@H](Cc1ccc(O)cc1)NC(=O)[C@@H](N)Cc1c[nH]c2ccccc12)[C@@H](C)CC)[C@@H](C)CC)C1CCCCC1)C(=O)N[C@@H](Cc1c[nH]c2ccccc12)C(=O)N[C@@H](CO)C(=O)N[C@@H](CCCNC(=N)N)C(=O)N[C@H](C(=O)N[C@@H](CCCNC(=N)N)C(=O)N[C@@H](CC(C)C)C(N)=O)C1CCCCC1) [nPDM-72]
2 |  | ≥ 40 |  | {m‑dPEG(4)-Ahx}-FYIEWIKIQIISKLRL-NH2 [PDM-32]
3 | ≥ 40 | ≥ 40 |  | H-WYIRWIK[Chg]QIWSK[Chg]RL-NH2 (SMILES CC[C@H](C)[C@H](NC(=O)[C@H](CCC(N)=O)NC(=O)[C@@H](NC(=O)[C@H](CCCCN)NC(=O)[C@@H](NC(=O)[C@H](Cc1c[nH]c2ccccc12)NC(=O)[C@H](CCCNC(=N)N)NC(=O)[C@@H](NC(=O)[C@H](Cc1ccc(O)cc1)NC(=O)[C@@H](N)Cc1c[nH]c2ccccc12)[C@@H](C)CC)[C@@H](C)CC)C1CCCCC1)C(=O)N[C@@H](Cc1c[nH]c2ccccc12)C(=O)N[C@@H](CO)C(=O)N[C@@H](CCCCN)C(=O)N[C@H](C(=O)N[C@@H](CCCNC(=N)N)C(=O)N[C@@H](CC(C)C)C(N)=O)C1CCCCC1) [nPDM-66]
4 | ≥ 40 |  |  | H-WYIRWIP[Chg]QIWSR[Chg]RL-NH2 (SMILES CC[C@H](C)[C@H](NC(=O)[C@H](CCC(N)=O)NC(=O)[C@@H](NC(=O)[C@@H]1CCCN1C(=O)[C@@H](NC(=O)[C@H](Cc1c[nH]c2ccccc12)NC(=O)[C@H](CCCNC(=N)N)NC(=O)[C@@H](NC(=O)[C@H](Cc1ccc(O)cc1)NC(=O)[C@@H](N)Cc1c[nH]c2ccccc12)[C@@H](C)CC)[C@@H](C)CC)C1CCCCC1)C(=O)N[C@@H](Cc1c[nH]c2ccccc12)C(=O)N[C@@H](CO)C(=O)N[C@@H](CCCNC(=N)N)C(=O)N[C@H](C(=O)N[C@@H](CCCNC(=N)N)C(=O)N[C@@H](CC(C)C)C(N)=O)C1CCCCC1) [nPDM-77]
5 | ≥ 40 |  |  | H-WYIRWIK[Chg]QIWSR[Chg]RL-NH2 (SMILES CC[C@H](C)[C@H](NC(=O)[C@H](CCC(N)=O)NC(=O)[C@@H](NC(=O)[C@H](CCCCN)NC(=O)[C@@H](NC(=O)[C@H](Cc1c[nH]c2ccccc12)NC(=O)[C@H](CCCNC(=N)N)NC(=O)[C@@H](NC(=O)[C@H](Cc1ccc(O)cc1)NC(=O)[C@@H](N)Cc1c[nH]c2ccccc12)[C@@H](C)CC)[C@@H](C)CC)C1CCCCC1)C(=O)N[C@@H](Cc1c[nH]c2ccccc12)C(=O)N[C@@H](CO)C(=O)N[C@@H](CCCNC(=N)N)C(=O)N[C@H](C(=O)N[C@@H](CCCNC(=N)N)C(=O)N[C@@H](CC(C)C)C(N)=O)C1CCCCC1) [nPDM-70]
6 |  | ≥ 40 |  | {m‑dPEG(4)″-Ahx}-[2Nal]YIEWIKIQIISKLRL-NH2 (SMILES CC[C@H](C)[C@H](NC(=O)[C@H](Cc1ccc(O)cc1)NC(=O)[C@H](Cc1ccc2ccccc2c1)NC(=O)CCCCCNC(=O)CCOCCOCCOCCOC)C(=O)N[C@@H](CCC(=O)O)C(=O)N[C@@H](Cc1c[nH]c2ccccc12)C(=O)N[C@H](C(=O)N[C@@H](CCCCN)C(=O)N[C@H](C(=O)N[C@@H](CCC(N)=O)C(=O)N[C@H](C(=O)N[C@H](C(=O)N[C@@H](CO)C(=O)N[C@@H](CCCCN)C(=O)N[C@@H](CC(C)C)C(=O)N[C@@H](CCCNC(=N)N)C(=O)N[C@@H](CC(C)C)C(N)=O)[C@@H](C)CC)[C@@H](C)CC)[C@@H](C)CC)[C@@H](C)CC) [PDM-31]
7 | ≥ 40 | ≥ 40 |  | H-WYIRWIKIQIWSK[Chg]RL-NH2 (SMILES CC[C@H](C)[C@H](NC(=O)[C@H](CCC(N)=O)NC(=O)[C@@H](NC(=O)[C@H](CCCCN)NC(=O)[C@@H](NC(=O)[C@H](Cc1c[nH]c2ccccc12)NC(=O)[C@H](CCCNC(=N)N)NC(=O)[C@@H](NC(=O)[C@H](Cc1ccc(O)cc1)NC(=O)[C@@H](N)Cc1c[nH]c2ccccc12)[C@@H](C)CC)[C@@H](C)CC)[C@@H](C)CC)C(=O)N[C@@H](Cc1c[nH]c2ccccc12)C(=O)N[C@@H](CO)C(=O)N[C@@H](CCCCN)C(=O)N[C@H](C(=O)N[C@@H](CCCNC(=N)N)C(=O)N[C@@H](CC(C)C)C(N)=O)C1CCCCC1) [nPDM-65]
8 | ≥ 40 |  |  | {Propanoyl(3,3-Ph2)}-YIRWIR[Chg]QIWSR[Chg]PL-NH2 (SMILES CC[C@H](C)[C@H](NC(=O)[C@H](Cc1ccc(O)cc1)NC(=O)CC(c1ccccc1)c1ccccc1)C(=O)N[C@@H](CCCNC(=N)N)C(=O)N[C@@H](Cc1c[nH]c2ccccc12)C(=O)N[C@H](C(=O)N[C@@H](CCCNC(=N)N)C(=O)N[C@H](C(=O)N[C@@H](CCC(N)=O)C(=O)N[C@H](C(=O)N[C@@H](Cc1c[nH]c2ccccc12)C(=O)N[C@@H](CO)C(=O)N[C@@H](CCCNC(=N)N)C(=O)N[C@H](C(=O)N1CCC[C@H]1C(=O)N[C@@H](CC(C)C)C(N)=O)C1CCCCC1)[C@@H](C)CC)C1CCCCC1)[C@@H](C)CC) [3,3-diphenylpropionyl-nPDM-85]
9 | ≥ 40 |  |  | H-AWYIRWIKIQIWSKLRL-NH2 [A-nPDM-55/E31R]
10 | ≥ 40 |  |  | H-WYIRWIR[Chg]QIWSK[Chg]RL-NH2 (SMILES CC[C@H](C)[C@H](NC(=O)[C@H](CCC(N)=O)NC(=O)[C@@H](NC(=O)[C@H](CCCNC(=N)N)NC(=O)[C@@H](NC(=O)[C@H](Cc1c[nH]c2ccccc12)NC(=O)[C@H](CCCNC(=N)N)NC(=O)[C@@H](NC(=O)[C@H](Cc1ccc(O)cc1)NC(=O)[C@@H](N)Cc1c[nH]c2ccccc12)[C@@H](C)CC)[C@@H](C)CC)C1CCCCC1)C(=O)N[C@@H](Cc1c[nH]c2ccccc12)C(=O)N[C@@H](CO)C(=O)N[C@@H](CCCCN)C(=O)N[C@H](C(=O)N[C@@H](CCCNC(=N)N)C(=O)N[C@@H](CC(C)C)C(N)=O)C1CCCCC1) [nPDM-71]
11 |  |  | 273 | {R^118}-RQNTRYSRIEWIKIQIISKLRL-NH2 (reading uncertain; also: N-terminal R118 group (Formula 11) structure not given here, printed as R118-RQNTRYSRIEWIKIQIISKLRL-NH2) [3d]
12 |  | ≥ 40 |  | {m‑dPEG(4)-Ahx}-YYIEWIKIQIISKLRL-NH2 [PDM-29]
13 | ≥ 40 |  |  | H-WYIRWIR[Chg]QIWPR[Chg]RL-NH2 (SMILES CC[C@H](C)[C@H](NC(=O)[C@H](Cc1ccc(O)cc1)NC(=O)[C@@H](N)Cc1c[nH]c2ccccc12)C(=O)N[C@@H](CCCNC(=N)N)C(=O)N[C@@H](Cc1c[nH]c2ccccc12)C(=O)N[C@H](C(=O)N[C@@H](CCCNC(=N)N)C(=O)N[C@H](C(=O)N[C@@H](CCC(N)=O)C(=O)N[C@H](C(=O)N[C@@H](Cc1c[nH]c2ccccc12)C(=O)N1CCC[C@H]1C(=O)N[C@@H](CCCNC(=N)N)C(=O)N[C@H](C(=O)N[C@@H](CCCNC(=N)N)C(=O)N[C@@H](CC(C)C)C(N)=O)C1CCCCC1)[C@@H](C)CC)C1CCCCC1)[C@@H](C)CC) [nPDM-75]
14 | ≥ 40 |  |  | H-WYIRWIR[Chg]QIWSR[Chg]PL-NH2 [nPDM-73]
15 |  | ≥ 40 |  | H-WYFRWIKIQIWSKLRL-NH2 [nPDM-67]
16 |  | ≥ 40 |  | {m‑dPEG(4)-Ahx}-WWIEWIKIQIISKLRL-NH2 [PDM-30]
17 | ≥ 40 | ≥ 40 |  | H-YYIR[2Nal]IKIQIWSKLRL-NH2 (SMILES CC[C@H](C)[C@H](NC(=O)[C@H](CCC(N)=O)NC(=O)[C@@H](NC(=O)[C@H](CCCCN)NC(=O)[C@@H](NC(=O)[C@H](Cc1ccc2ccccc2c1)NC(=O)[C@H](CCCNC(=N)N)NC(=O)[C@@H](NC(=O)[C@H](Cc1ccc(O)cc1)NC(=O)[C@@H](N)Cc1ccc(O)cc1)[C@@H](C)CC)[C@@H](C)CC)[C@@H](C)CC)C(=O)N[C@@H](Cc1c[nH]c2ccccc12)C(=O)N[C@@H](CO)C(=O)N[C@@H](CCCCN)C(=O)N[C@@H](CC(C)C)C(=O)N[C@@H](CCCNC(=N)N)C(=O)N[C@@H](CC(C)C)C(N)=O) [nPDM-69]
18 | ≥ 40 |  |  | H-WYIRWIR[Chg]PIWSR[Chg]RL-NH2 (SMILES CC[C@H](C)[C@H](NC(=O)[C@H](Cc1ccc(O)cc1)NC(=O)[C@@H](N)Cc1c[nH]c2ccccc12)C(=O)N[C@@H](CCCNC(=N)N)C(=O)N[C@@H](Cc1c[nH]c2ccccc12)C(=O)N[C@H](C(=O)N[C@@H](CCCNC(=N)N)C(=O)N[C@H](C(=O)N1CCC[C@H]1C(=O)N[C@H](C(=O)N[C@@H](Cc1c[nH]c2ccccc12)C(=O)N[C@@H](CO)C(=O)N[C@@H](CCCNC(=N)N)C(=O)N[C@H](C(=O)N[C@@H](CCCNC(=N)N)C(=O)N[C@@H](CC(C)C)C(N)=O)C1CCCCC1)[C@@H](C)CC)C1CCCCC1)[C@@H](C)CC) [nPDM-76]
